Experiments:
EGFR [1] = molecular target: T1, EGFR (Homo sapiens, UniProt P00533); assay: 125I-EGF whole-cell saturation binding, ZR-75-9a1 FCSdcc 4 weeks, Woolf analysis
EGFR [2] = molecular target: T1, EGFR; assay: 125I-EGF whole-cell saturation binding, ZR-PR-LT cells + acid wash, Woolf analysis
EGFR [3] = molecular target: T1, EGFR; assay: 125I-EGF whole-cell saturation binding, ZR-75-1 cells, Woolf analysis
EGFR [4] = molecular target: T1, EGFR; assay: 125I-EGF whole-cell saturation binding, ZR-75-9a1 FCSdcc 2 weeks, Woolf analysis
EGFR [5] = molecular target: T1, EGFR; assay: 125I-EGF whole-cell saturation binding, ZR-75-9a1 FCSdcc 1 week, Woolf analysis
EGFR [6] = molecular target: T1, EGFR; assay: 125I-EGF whole-cell saturation binding, ZR-75-9a1 FCSdcc 2 years, Woolf analysis
EGFR [7] = molecular target: T1, EGFR; assay: 125I-EGF whole-cell saturation binding, ZR-75-9a1 8 uM cells, Woolf analysis
EGFR [8] = molecular target: T1, EGFR; assay: 125I-EGF whole-cell saturation binding, ZR-PR-LT cells + suramin pretreatment, Woolf analysis
EGFR [9] = molecular target: T1, EGFR; assay: 125I-EGF whole-cell saturation binding, ZR-PR-LT cells, Woolf analysis

- Kd (EGFR [1]): 0.14 nM
- Kd (EGFR [2]): 0.21 nM
- Kd (EGFR [3]): 0.23 nM
- Kd (EGFR [4]): 0.28 nM
- Kd (EGFR [5]): 0.37 nM
- Kd (EGFR [6]): 0.18 nM
- Kd (EGFR [7]): 0.19 nM
- Kd (EGFR [8]): 0.31 nM
- Kd (EGFR [9]): 0.26 nM
B1: EGF (protein)
chain: NSYPGCPSSYDGYCLNGGVCMHIESLDSYTCNCVIGYSGDRCQTRDLRWWELR
